Assay results: patent US20240025993A1, “CD19 BINDING MOLECULES AND USES THEREOF” (NOVARTIS AG, priority 2020, published 2024)

T1: human CD19 (Homo sapiens, UniProt P15391)
T1 construct: expressed in transfected cells; host or cells: mouse cell line 300.19
T1 sequence (P15391 20-556): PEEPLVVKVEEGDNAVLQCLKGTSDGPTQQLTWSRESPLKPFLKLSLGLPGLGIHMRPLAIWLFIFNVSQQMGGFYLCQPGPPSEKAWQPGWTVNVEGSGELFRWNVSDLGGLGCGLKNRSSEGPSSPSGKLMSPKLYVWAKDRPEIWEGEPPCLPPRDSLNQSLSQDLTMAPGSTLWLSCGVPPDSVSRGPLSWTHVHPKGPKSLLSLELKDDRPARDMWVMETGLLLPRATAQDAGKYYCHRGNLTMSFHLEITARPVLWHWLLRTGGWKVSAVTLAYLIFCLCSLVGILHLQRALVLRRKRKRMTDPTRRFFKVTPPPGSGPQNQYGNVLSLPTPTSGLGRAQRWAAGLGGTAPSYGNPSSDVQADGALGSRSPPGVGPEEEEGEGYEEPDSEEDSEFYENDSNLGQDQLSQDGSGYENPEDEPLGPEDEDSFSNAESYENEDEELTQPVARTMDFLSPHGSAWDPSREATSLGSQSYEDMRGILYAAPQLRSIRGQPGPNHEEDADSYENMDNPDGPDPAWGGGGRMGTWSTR


What was measured:
[1] = molecular target: T1, human CD19; assay: Binding of TBMs to 300.19 cells overexpressing human CD19 (Example 11); settings: flow cytometry, R variants
Protocol: (§1) The mouse cell line 300.19 was engineered to overexpress either human CD19 or cyno CD19. Cells were cultured in RPMI medium (Invitrogen #11875-093) with 10% FBS and 2-mercaptoethanol. Cells were harvested and resuspended in FACS buffer (PBS containing 1% FBS). 50,000 cells per well were plated in a V-bottom 96-well plate. Each cell line was incubated with serial dilutions of TBMs of Example 1A (i.e., R variants) for one hour on ice. Cells were centrifuged for 4 min at 400×g and washed with FACS buffer. This was repeated twice, and then the cells were incubated with Alexa-647 labeled anti-human Fc secondary antibody (Jackson Immuno #109-605-098) for 30 min on ice. The cells were washed twice, then resuspended in 100 μL of FACS buffer. FACS data was collected on a Beckman Coulter Cytoflex and analysis was performed using CytExpert v2.3.

[2] = system: cyno CD19; assay: Binding of TBMs to 300.19 cells overexpressing cyno CD19 (Example 11); settings: flow cytometry, R variants
Protocol: as §1

[3] = Differential scanning calorimetry, melting temperature of Fc modified anti-CD3 antibodies (Example 35); type: physicochemical; settings: DSC, 1 mg/ml in PBS pH 7.4, anti-CD3 IgG1 Fc variants
Protocol: Calorimetric measurements were carried out on a differential scanning micro calorimeter (Nano DSC, TA instruments). The cell volume was 0.5 ml and the heating rate was 1° C./min. All proteins were used at a concentration of 1 mg/m in PBS (pH 7.4). The molar heat capacity of each protein was estimated by comparison with duplicate samples containing identical buffer from which the protein had been omitted. The partial molar heat capacities and melting curves were analyzed using standard procedure. Thermograms were baseline corrected and concentration normalized.

[4] = Aggregation propensity (% HMW) by analytical SEC of IgG1 anti-CD3 antibody and Fc variants (Example 35); type: physicochemical; settings: PBS pH 7.4, anti-CD3 antibodies
Protocol: Size exclusion chromatography measurements were performed to evaluate the aggregation propensity (% HMW) of IgG1 antibody and Fc modified derivatives. The produced and purified anti CD3 antibodies were applied to an analytical size exclusion chromatography column (SEC 200, GE Healthcare), equilibrated with PBS buffer pH 7.4.

[5] = molecular target: human FcγR1A (Homo sapiens, UniProt P12314); assay: SPR binding of Fc modified anti-CD3 IgG1 antibodies (Example 34); settings: anti-CD3 IgG1 antibody immobilized
Sequence of human FcγR1A (P12314 16-374): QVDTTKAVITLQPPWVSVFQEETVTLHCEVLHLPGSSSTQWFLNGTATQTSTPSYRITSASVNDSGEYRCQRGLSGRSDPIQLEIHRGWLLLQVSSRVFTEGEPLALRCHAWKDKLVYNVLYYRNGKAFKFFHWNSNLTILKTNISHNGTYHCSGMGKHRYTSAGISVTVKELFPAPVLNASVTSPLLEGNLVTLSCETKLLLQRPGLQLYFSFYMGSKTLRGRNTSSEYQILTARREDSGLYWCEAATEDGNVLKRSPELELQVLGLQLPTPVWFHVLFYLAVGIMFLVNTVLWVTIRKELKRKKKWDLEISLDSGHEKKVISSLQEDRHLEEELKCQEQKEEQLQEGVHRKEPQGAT
Protocol: Surface plasmon resonance (SPR) experiments were performed to analyze the interaction of human activating receptors FcγR1A, FcγR3A (V158) and human C1q with IgG1 WT and antibody-Fc variants. Binding kinetics and their relative binding affinities were explored. The binding affinity is an important characteristic of an interaction between an antibody and an antigen. The equilibrium dissociation constant (KD) defines how strong the interaction is and therefore how much antibody-antigen complex is formed at equilibrium.
The knowledge of the antibody characteristics is not only essential during selection of the best therapeutic antibody candidate, but also important to understand the in vivo behavior and potentially predict cellular immune responses. […] Binding to human C1q was evaluated. […] SPR measurements were measured on a Biacore T200 (GE-Healthcare Life Sciences) controlled by Biacore T200 control software version 2.0.1. […]
The antibodies were covalently immobilized on a CM5 sensor chip whereas Fc gamma receptors or human C1q served as analytes in solution (FIG. 38). […] Zero concentration samples (blank runs) were measured for both methods to allow double-referencing during data evaluation.
Data were evaluated using the Biacore T200 evaluation software. […] In addition, the maximum response reached during the experiment was monitored. […]

Maximum response at 100 nM hFcgammaRIA (RU) [5] [RU] | Molecule | binding to cells overexpressing human CD19 [1] | binding to cells overexpressing cyno CD19 [2] | Melting temperature (Tm) of CH2 domain [3] [°C] | (%) higher molecular weight [4] [%]
– | NEG258: CD19 antibody/binder; VH SEQ ID NO:13, VL SEQ ID NO:26 (antibody, V domains shown) VH: QVQLVQSGAEVKKPGASVKVSCKASGYTFTTYWIQWVRQAPGQRLEWMGAVYPGDADTRYTQKFQGRVTLTADRSASTAYMELSSLRSEDTAVYYCGRDAGLEYYALDYWGQGTLVTVSS VL: EIVMTQSPATLSVSPGERATLSCRASQDVGTAVAWYQQKPGQAPRLLIYWASTRHTGIPARFSGSGSGTEFTLTISSLQSEDFAVYFCQQYANFPLYTFGQGTKLEIK | greater affinity for both human CD19 and cyno CD19 | greater affinity for both human CD19 and cyno CD19 | – | –
13 | DAPASK-IgG1: anti-CD3 IgG1 with D265A/P329A/S267K (antibody) heavy: EVQLVESGGGLVQPGGSLKLSCAASGFTFNTYAMNWVRQASGKGLEWVGRIRSKYNNYATYYADSVKDRFTISRDDSKSTLYLQMNSLKTEDTAVYYCVRHGNFGNSYVSWFAYWGQGTLVTVSSASTKGPSVFPLAPSSKSTSGGTAALGCLVKDYFPEPVTVSWNSGALTSGVHTFPAVLQSSGLYSLSSVVTVPSSSLGTQTYICNVNHKPSNTKVDKRVEPKSCDKTHTCPPCPAPELLGGPSVFLFPPKPKDTLMISRTPEVTCVVVAVKHEDPEVKFNWYVDGVEVHNAKTKPREEQYNSTYRVVSVLTVLHQDWLNGKEYKCKVSNKALAAPIEKTISKAKGQPREPQVYTLPPSRDELTKNQVSLTCLVKGFYPSDIAVEWESNGQPENNYKTTPPVLDSDGSFFLYSKLTVDKSRWQQGNVFSCSVMHEALHNHYTQKSLSLSPGK light: QAVVTQEPSLTVSPGGTVTLTCRSSTGAVTTSNYANWVQQKPGQAPRGLIGGTNKRAPWTPARFSGSLLGDKAALTLSGAQPEDEAEYFCALWYSNLWVFGGGTKLTVLGQPKAAPSVTLFPPSSEELQANKATLVCLISDFYPGAVTVAWKADSSPVKAGVETTTPSKQSNNKYAASSYLSLTPEQWKSHRSYSCQVTHEGSTVEKTVAPTECS | – | – | 65 | 3.6
